Measurements taken from patent US20210017279A1 (NANJING LEGEND BIOTECH, published 2021).
Values joined by “and” are separate entries in the source; they are usually repeats but may differ in a detail not shown here. Identical values can stand only once. Like-named read-outs stand apart in the source and are kept apart here.

Experiments:
[1] = target: LAG-3 on Thaw-and-Use LAG-3 Effector cells; experiment: cell-based or functional assay
[2] = target: PD-1 in the PD-1 cell based reporter assay; experiment: cell-based or functional assay
Human LAG-3-His = target: T1, Human LAG-3-His (human, UniProt P18627 29-450); experiment: SPR (Biacore T200), as in Example 3; Experiment 2
T1 construct: Bought recombinant protein; also called Human LAG-3 protein (Acrobiosystem, 772-6BGF2-D5); not shown: His tag
T1 sequence: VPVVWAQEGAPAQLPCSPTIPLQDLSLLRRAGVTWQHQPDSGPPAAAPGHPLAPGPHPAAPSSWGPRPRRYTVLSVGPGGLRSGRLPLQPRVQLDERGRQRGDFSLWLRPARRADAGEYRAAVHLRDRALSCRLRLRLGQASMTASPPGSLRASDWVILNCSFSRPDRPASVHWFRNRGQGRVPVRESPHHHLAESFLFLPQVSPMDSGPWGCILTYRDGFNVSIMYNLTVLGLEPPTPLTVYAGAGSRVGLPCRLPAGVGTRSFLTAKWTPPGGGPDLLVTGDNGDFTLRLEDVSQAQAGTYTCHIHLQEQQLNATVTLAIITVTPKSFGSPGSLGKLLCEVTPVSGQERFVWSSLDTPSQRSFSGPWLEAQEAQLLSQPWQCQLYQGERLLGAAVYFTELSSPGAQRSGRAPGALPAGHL

Human PD-1 [3] = target: T2, Human PD-1 (human, UniProt Q15116 25-167, limits assumed); experiment: SPR (Biacore T200), as in Example 3; Experiment 2
T2 sequence (Q15116 25-167 limits assumed): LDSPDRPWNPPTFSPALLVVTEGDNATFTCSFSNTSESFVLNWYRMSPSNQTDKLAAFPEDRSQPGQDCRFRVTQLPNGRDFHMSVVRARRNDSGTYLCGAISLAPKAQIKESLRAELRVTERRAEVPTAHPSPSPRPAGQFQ

[4] = target: T3, PD-1 expressed on CHO cells (UniProt Q15116 25-288, limits assumed); experiment: flow cytometry on CHO cells expressing PD-1; Experiment 2
T3 construct: whole, on cells; also called CHO-PD-1 cells
T3 sequence (Q15116 25-288 limits assumed): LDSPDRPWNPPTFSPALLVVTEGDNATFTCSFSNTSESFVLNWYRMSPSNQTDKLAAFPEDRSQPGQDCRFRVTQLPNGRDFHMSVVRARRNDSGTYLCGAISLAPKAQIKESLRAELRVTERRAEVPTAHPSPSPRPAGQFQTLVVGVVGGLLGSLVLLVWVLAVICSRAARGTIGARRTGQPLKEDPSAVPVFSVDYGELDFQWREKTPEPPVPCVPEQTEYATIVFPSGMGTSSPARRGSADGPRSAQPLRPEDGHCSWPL

[5] = target: T4, human LAG-3 expressed on CHO-K1 cells (human, UniProt P18627 29-525); experiment: flow cytometry on CHO cells expressing LAG-3; Experiment 2
T4 construct: also called CHO-huLAG-3 cells; LAG-3 expressed on CHO cells
T4 sequence: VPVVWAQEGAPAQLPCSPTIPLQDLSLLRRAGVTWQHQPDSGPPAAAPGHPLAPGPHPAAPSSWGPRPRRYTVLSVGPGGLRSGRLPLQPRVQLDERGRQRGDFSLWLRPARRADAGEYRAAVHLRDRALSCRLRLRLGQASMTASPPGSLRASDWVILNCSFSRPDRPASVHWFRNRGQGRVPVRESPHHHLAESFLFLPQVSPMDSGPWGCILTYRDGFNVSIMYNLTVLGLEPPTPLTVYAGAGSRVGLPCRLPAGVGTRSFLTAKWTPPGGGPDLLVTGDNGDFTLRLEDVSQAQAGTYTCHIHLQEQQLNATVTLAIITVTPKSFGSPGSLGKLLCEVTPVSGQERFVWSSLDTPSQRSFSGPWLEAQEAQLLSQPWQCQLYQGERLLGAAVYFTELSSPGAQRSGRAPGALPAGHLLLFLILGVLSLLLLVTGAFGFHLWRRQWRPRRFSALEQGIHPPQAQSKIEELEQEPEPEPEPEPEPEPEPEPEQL
Description: (§1) To determine cell binding EC₅₀, CHO-K1 cells expressing human or cynomolgus LAG-3 were harvested and incubated with anti-LAG-3 sdAb-Fc fusion proteins at gradient concentrations, followed by fluorophore-labeled secondary antibodies against human Fc. […] The samples were then analyzed with flow cytometry. The binding and blocking curves were shown in FIG. 4 and FIG. 5, respectively.

[6] = target: T3, PD-1 expressed on CHO cells; experiment: flow cytometry competition; blocks PD-L1 binding to CHO-PD-1 cells; Experiment 2
LAG-3-Fc = target: T5, LAG-3-Fc (human, UniProt P18627 29-450, biotinylated (in the blocking assays)); experiment: flow cytometry competition; blocks LAG-3-Fc binding to MHC II on A375 cells; Experiment 2
T5 construct: Recombinant LAG-3-Fc (Acrobiosystems / R&D Systems); also called biotinylated LAG-3-Fc protein; not shown: Fc part
T5 sequence: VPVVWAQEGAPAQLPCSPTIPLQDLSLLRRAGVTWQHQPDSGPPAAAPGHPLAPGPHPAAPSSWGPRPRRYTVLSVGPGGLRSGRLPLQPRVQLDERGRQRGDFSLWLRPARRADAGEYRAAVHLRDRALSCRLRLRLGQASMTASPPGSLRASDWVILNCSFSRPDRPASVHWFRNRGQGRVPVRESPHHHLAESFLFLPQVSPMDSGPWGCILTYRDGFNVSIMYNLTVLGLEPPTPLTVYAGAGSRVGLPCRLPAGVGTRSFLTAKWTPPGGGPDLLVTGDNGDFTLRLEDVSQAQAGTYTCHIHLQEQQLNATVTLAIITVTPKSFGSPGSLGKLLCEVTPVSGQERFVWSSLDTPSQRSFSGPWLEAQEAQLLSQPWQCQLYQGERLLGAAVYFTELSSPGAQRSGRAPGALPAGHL

Human PD-1 [7] = target: T2, Human PD-1; experiment: SPR (Biacore T200), as in Example 3; Experiment 1
[8] = target: T3, PD-1 expressed on CHO cells; experiment: flow cytometry on CHO cells expressing PD-1; Experiment 1
[9] = target: T3, PD-1 expressed on CHO cells; experiment: flow cytometry competition; blocks PD-L1 binding to CHO-PD-1 cells; Experiment 1
[10] = target: LAG-3 on Thaw-and-Use LAG-3 Effector cells; experiment: cell-based or functional assay; remark: listed apart in the source
[11] = target: T6, cynomolgus LAG-3 expressed on CHO-K1 cells (cynomolgus); experiment: flow cytometry on CHO-K1 cells expressing cynomolgus LAG-3
T6 construct: whole, on cells
Description: as §1

Cynomolgus LAG-3-Fc [12] = target: T7, Cynomolgus LAG-3-Fc (cynomolgus); experiment: SPR (Biacore T200); antibody captured on chip, LAG-3 injected
T7 construct: Bought recombinant protein; also called cynomolgus LAG-3 protein (Acrobiosystem, 2187-71HF1-DZ)
Description: BIACORE™ T200 instrument was utilized to determine the affinity constant (KD) of each anti-LAG-3 antibody (sdAb-Fc fusion protein or mAb format) by SPR. Briefly, anti-LAG-3 antibody was immobilized on the sensor chip through capture antibody (Jackson ImmunoResearch Cat. No.115-005-071) at an appropriate density. […] The data of dissociation rate constant (koff) and association rate constant (kₘ) were obtained using BIACORE™ T200 evaluation software and the affinity constant (KD) were calculated from the ratio of koff to kₘ.

Cynomolgus LAG-3-Fc [13] = target: T7, Cynomolgus LAG-3-Fc; experiment: SPR (Biacore T200); cynomolgus LAG-3 immobilized, antibody injected
Description: BIACORE™ T200 instrument was utilized to determine affinity constant (KD) of each anti-LAG-3 antibody (sdAb-Fc fusion protein or mAb format) by SPR. Briefly, for measuring the affinity against human LAG-3, anti-LAG-3 antibody was immobilized on the sensor chip through capture antibody (Jackson ImmunoResearch Cat.No.115-005-071) at an appropriate density. […] The data of dissociation rate constant (koff) and association rate constant (k₀n) were obtained using BIACORE™ T200 evaluation software and the affinity constant (KD) were calculated from the ratio of koff to kₒₙ.

Binder | LAG-3 blockade reporter assay EC50 [1] | PD-1 cell based reporter assay EC50 [2] | Kd (Human PD-1 [3]) [nM] | EC50 [4] [nM] | EC50 [6] [nM] | Kd (Human PD-1 [7]) [nM] | EC50 [8] [nM] | EC50 [9] [nM] | also measured
BLP-19 (bispecific antibody, human IgG4 S228P, kappa, also called PD-1 x LAG-3 BABP) heavy: not shown light: EVQLVESGGGLVQPGGSLRLSCAASGYTYGGYCMGWFRQAPGKGLEGVSTINSDGSTNYADSVKGRFTISRDNSKNTLYLQMNSLRAEDTAVYYCAVDLAPCWVAGPIEAADFGYWGQGTLVTVSSEPKSSDKTHTSPPSPDIQMTQSPSSVSASVGDRVTITCKASQDVDTAVAWYQQKPGKAPKLLIYWASTRHTGVPSRFSGSGSGTDFTLTISSLQPEDFATYYCQQYSTFPWTFGGGTKVEIKRTVAAPSVFIFPPSDEQLKSGTASVVCLLNNFYPREAKVQWKVDNALQSGNSQESVTEQDSKDSTYSLSSTLTLSKADYEKHKVYACEVTHQGLSSPVTKSFNRGEC | 1.57 nM | 3.65 nM | 4 | 14.6 | 21 |  |  |  | Kd (Human LAG-3-His): 1.4 nM; EC50 [5]: 13.5 nM; EC50 (LAG-3-Fc): 44.6 nM
PD1-BM-min (antibody, human IgG4 S228P, kappa, V domains shown, Full-length anti-PD-1 antibody, parental element of the BLP constructs; also called PD-BM-min; anti-PD-1 full-length antibody) VH: EVQLVESGGGLVQPGGSLRLSCAASGFVFSRYDMAWVRQAPGKGLEWVSFISGGGSNTYYPDTVKGRFTISRDNSKNTLYLQMNSLRAEDTAVYYCISPYYYAMEYWGQGTTVTVSS VL: DIQMTQSPSSVSASVGDRVTITCKASQDVDTAVAWYQQKPGKAPKLLIYWASTRHTGVPSRFSGSGSGTDFTLTISSLQPEDFATYYCQQYSTFPWTFGGGTKVEIKR |  | 1.34 nM and 1.21 nM | 2.3 | 6.27 | 9.56 | 1.4 | 2.44 | 1.72 | 
BLP-15 (bispecific antibody, human IgG4 S228P, kappa, also called PD-1 x LAG-3 BABP) heavy: not shown light: EVQLVESGGGLVQPGGSLRLSCAASGYTVSSYCMGWFRQAPGKGREGVSAIDSDGSVSYADSVKGRFTISKDNSKNTLYLQMNSLRAEDTAVYFCAADLCWVDQDQGEYNTWGQGTLVTVSSEPKSSDKTHTSPPSPDIQMTQSPSSVSASVGDRVTITCKASQDVDTAVAWYQQKPGKAPKLLIYWASTRHTGVPSRFSGSGSGTDFTLTISSLQPEDFATYYCQQYSTFPWTFGGGTKVEIKRTVAAPSVFIFPPSDEQLKSGTASVVCLLNNFYPREAKVQWKVDNALQSGNSQESVTEQDSKDSTYSLSSTLTLSKADYEKHKVYACEVTHQGLSSPVTKSFNRGEC | 5.12 nM | 3.32 nM | 4.4 | 13.7 | 18.5 |  |  |  | 
BMS-986016 (antibody, human IgG4 S228P, kappa, V domains shown, also called benchmark antibody; positive control anti-LAG-3 monoclonal antibody (Bristol-Myers Squibb)) VH: QVQLQQWGAGLLKPSETLSLTCAVYGGSFSDYYWNWIRQPPGKGLEWIGEINHRGSTNSNPSLKSRVTLSLDTSKNQFSLKLRSVTAADTAVYYCAFGYSDYEYNWFDPWGQGTLVTVSS VL: EIVLTQSPATLSLSPGERATLSCRASQSISSYLAWYQQKPGQAPRLLIYDASNRATGIPARFSGSGSGTDFTLTISSLEPEDFAVYYCQQRSNWPLTFGQGTNLEIKR | 3.29 nM and 3.82 nM |  |  |  |  |  |  |  | LAG-3 blockade reporter assay EC50 [10]: 3.82 nM; LAG-3 blockade reporter assay Signal span (% activation) [10]: 76.8 % activation; EC50 [11]: 17.6 nM; Kd (Cynomolgus LAG-3-Fc [12]): 1.7 nM; Kd (Cynomolgus LAG-3-Fc [13]): 1000 nM
BLP-34 (bispecific antibody, human IgG4 S228P, kappa, also called PD-1 x LAG-3 BABP) heavy: not shown light: EPKSSDKTHTSPPSPEVQLVESGGGLVQPGGSLRLSCAASGYIISSYCMGWFRQAPGKGLEGVAAIDSDGGTSYADSVKGRFTISKDNSKNTLYLQMNSLRAEDTAMYYCAADFCWVDEDRHLYEYNSWGQGTLVTVSSDIQMTQSPSSVSASVGDRVTITCKASQDVDTAVAWYQQKPGKAPKLLIYWASTRHTGVPSRFSGSGSGTDFTLTISSLQPEDFATYYCQQYSTFPWTFGGGTKVEIKRTVAAPSVFIFPPSDEQLKSGTASVVCLLNNFYPREAKVQWKVDNALQSGNSQESVTEQDSKDSTYSLSSTLTLSKADYEKHKVYACEVTHQGLSSPVTKSFNRGEC | 15.8 nM | 2.77 nM | 3.1 | 12.5 | 13.8 |  |  |  | Kd (Human LAG-3-His): 3.7 nM; EC50 [5]: 3.12 nM; EC50 (LAG-3-Fc): 37.1 nM
BLP-38 (bispecific antibody, human IgG4 S228P, kappa, also called PD-1 x LAG-3 BABP) heavy: not shown light: EPKSSDKTHTSPPSPEVQLVESGGGLVQPGGSLRLSCAASGYTVSSYCMGWFRQAPGKGREGVSAIDSDGSVSYADSVKGRFTISKDNSKNTLYLQMNSLRAEDTAVYFCAADLCWVDQDQGEYNTWGQGTLVTVSSDIQMTQSPSSVSASVGDRVTITCKASQDVDTAVAWYQQKPGKAPKLLIYWASTRHTGVPSRFSGSGSGTDFTLTISSLQPEDFATYYCQQYSTFPWTFGGGTKVEIKRTVAAPSVFIFPPSDEQLKSGTASVVCLLNNFYPREAKVQWKVDNALQSGNSQESVTEQDSKDSTYSLSSTLTLSKADYEKHKVYACEVTHQGLSSPVTKSFNRGEC | 3.83 nM | 1.25 nM | 2.5 | 8.51 | 12.4 |  |  |  | 
Pembrolizumab (antibody, human IgG4 S228P, kappa, V domains shown) VH: QVQLVQSGVEVKKPGASVKVSCKASGYTFTNYYMYWVRQAPGQGLEWMGGINPSNGGTNFNEKFKNRVTLTTDSSTTTAYMELKSLQFDDTAVYYCARRDYRFDMGFDYWGQGTTVTVSS VL: EIVLTQSPATLSLSPGERATLSCRASKGVSTSGYSYLHWYQQKPGQAPRLLIYLASYLESGVPARFSGSGSGTDFTLTISSLEPEDFAVYYCQHSRDLPLTFGGGTKVEIKR |  | 1.15 nM |  |  |  |  |  |  | 
BLP-2 (bispecific antibody, human IgG4 S228P, kappa, also called PD-1 x LAG-3 proof-of-concept BABP) heavy: not shown light: DIQMTQSPSSVSASVGDRVTITCKASQDVDTAVAWYQQKPGKAPKLLIYWASTRHTGVPSRFSGSGSGTDFTLTISSLQPEDFATYYCQQYSTFPWTFGGGTKVEIKRTVAAPSVFIFPPSDEQLKSGTASVVCLLNNFYPREAKVQWKVDNALQSGNSQESVTEQDSKDSTYSLSSTLTLSKADYEKHKVYACEVTHQGLSSPVTKSFNRGEC | 2.04 nM | 5.14 nM |  |  |  | 4.4 | 4.29 | 3.2 | 
BLP-3 (bispecific antibody, human IgG4 S228P, kappa, also called PD-1 x LAG-3 proof-of-concept BABP) heavy: not shown light: DIQMTQSPSSVSASVGDRVTITCKASQDVDTAVAWYQQKPGKAPKLLIYWASTRHTGVPSRFSGSGSGTDFTLTISSLQPEDFATYYCQQYSTFPWTFGGGTKVEIKRTVAAPSVFIFPPSDEQLKSGTASVVCLLNNFYPREAKVQWKVDNALQSGNSQESVTEQDSKDSTYSLSSTLTLSKADYEKHKVYACEVTHQGLSSPVTKSFNRGEC | 1.45 nM | 5.92 nM |  |  |  | 2 | 4.64 | 4.38 | 
BLP-4 (bispecific antibody, human IgG4 S228P, kappa, also called PD-1 x LAG-3 proof-of-concept BABP) heavy: not shown light: DIQMTQSPSSVSASVGDRVTITCKASQDVDTAVAWYQQKPGKAPKLLIYWASTRHTGVPSRFSGSGSGTDFTLTISSLQPEDFATYYCQQYSTFPWTFGGGTKVEIKRTVAAPSVFIFPPSDEQLKSGTASVVCLLNNFYPREAKVQWKVDNALQSGNSQESVTEQDSKDSTYSLSSTLTLSKADYEKHKVYACEVTHQGLSSPVTKSFNRGEC | 1.85 nM | 5.94 nM |  |  |  | 4.5 | 3.51 | 2.58 | 
